Data from patent US20180155451A1 (published 2018).

T1: FcγRIIb (human, UniProt P31994 43-217)
T1 construct: extracellular domain; also called FcgRIIb; 2b
T1 sequence (looked up): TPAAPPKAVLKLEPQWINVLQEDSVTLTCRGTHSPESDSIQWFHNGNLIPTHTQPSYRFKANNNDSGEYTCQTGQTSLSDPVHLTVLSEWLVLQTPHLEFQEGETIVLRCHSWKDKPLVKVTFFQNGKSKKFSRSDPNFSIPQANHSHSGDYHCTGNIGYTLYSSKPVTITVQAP

T2: FcγRIIb extracellular domain with C-terminal His tag (human, UniProt P31994 43-217)
T2 construct: extracellular domain; also called 2b; FcgRIIb
T2 sequence (looked up): T1 sequence (looked up)

B1: GpH7-A5/GpH7-B3 variant (L235_19Q)/GpL16-k0 (antibody, human IgG1, kappa)
heavy 1: not shown
heavy 2: not shown
light: DIVMTQSPLSLPVTPGEPASISCQASESLVHSNRNTYLHWYLQKPGQSPQLLIYKVSNRFSGVPDRFSGSGSGTDFTLKISRVEAEDVGVYYCSQNTHVPPTFGQGTKVEIERTVAAPSVFIFPPSDEQLKSGTASVVCLLNNFYPREAKVQWKVDNALQSGNSQESVTEQDSKDSTYSLSSTLTLSKADYEKHKVYACEVTHQGLSSPVTKSFNRGEC
notes: IgG1 heterodimer, mutation in the GpH7-B3 chain only; also called He Ab
B2: GpH7-A5/GpH7-B3 variant (S267_16H)/GpL16-k0 (antibody, human IgG1, kappa)
heavy 1: not shown
heavy 2: not shown
light: B1 light
notes: as for B1
B3: GpH7-A5/GpH7-B3 variant (P271_02A)/GpL16-k0 (antibody, human IgG1, kappa)
heavy 1: not shown
heavy 2: not shown
light: B1 light
notes: as for B1
B4: GpH7-A5/GpH7-B3 variant (S267_18N)/GpL16-k0 (antibody, human IgG1, kappa)
heavy 1: not shown
heavy 2: not shown
light: B1 light
notes: as for B1
B5: GpH7-A5/GpH7-B3 variant (P271_03V)/GpL16-k0 (antibody, human IgG1, kappa)
heavy 1: not shown
heavy 2: not shown
light: B1 light
notes: as for B1
B6: GpH7-A5/GpH7-B3 variant (S239_14T)/GpL16-k0 (antibody, human IgG1, kappa)
heavy 1: not shown
heavy 2: not shown
light: B1 light
notes: as for B1
B7: GpH7-A5/GpH7-B3 variant (P271_04F)/GpL16-k0 (antibody, human IgG1, kappa)
heavy 1: not shown
heavy 2: not shown
light: B1 light
notes: as for B1
B8: GpH7-A5/GpH7-B3 variant (V266_19Q)/GpL16-k0 (antibody, human IgG1, kappa)
heavy 1: not shown
heavy 2: not shown
light: B1 light
notes: as for B1
B9: GpH7-A5/GpH7-B3 variant (S239_19Q)/GpL16-k0 (antibody, human IgG1, kappa)
heavy 1: not shown
heavy 2: not shown
light: B1 light
notes: as for B1
B10: GpH7-A5/GpH7-B3 variant D270_10E/GpL16-k0 (antibody, human IgG1, kappa)
heavy 1: not shown
heavy 2: not shown
light: B1 light
notes: He Ab: alteration in one H chain only; also called He Ab
B11: GpH7-A5/GpH7-B3 variant I332_13S/GpL16-k0 (antibody, human IgG1, kappa)
heavy 1: not shown
heavy 2: not shown
light: B1 light
notes: as for B10
B12: GpH7-A5/GpH7-B3 variant L234_04F/GpL16-k0 (antibody, human IgG1, kappa)
heavy 1: not shown
heavy 2: not shown
light: B1 light
notes: as for B10
B13: GpH7-A5/GpH7-B3 variant S298_14T/GpL16-k0 (antibody, human IgG1, kappa)
heavy 1: not shown
heavy 2: not shown
light: B1 light
notes: as for B10
B14: GpH7-A5/GpH7-B3 variant A330_16H/GpL16-k0 (antibody, human IgG1, kappa)
heavy 1: not shown
heavy 2: not shown
light: B1 light
notes: as for B10
B15: GpH7-A5/GpH7-B3 variant E333_16H/GpL16-k0 (antibody, human IgG1, kappa)
heavy 1: not shown
heavy 2: not shown
light: B1 light
notes: as for B10
B16: GpH7-A5/GpH7-B3 variant Q295_02A/GpL16-k0 (antibody, human IgG1, kappa)
heavy 1: not shown
heavy 2: not shown
light: B1 light
notes: as for B10
B17: GpH7-A5/GpH7-B3 variant E333_09D/GpL16-k0 (antibody, human IgG1, kappa)
heavy 1: not shown
heavy 2: not shown
light: B1 light
notes: as for B10
B18: GpH7-A5/GpH7-B3 variant S298_03V/GpL16-k0 (antibody, human IgG1, kappa)
heavy 1: not shown
heavy 2: not shown
light: B1 light
notes: as for B10
B19: GpH7-A5/GpH7-B3 variant A330_06M/GpL16-k0 (antibody, human IgG1, kappa)
heavy 1: not shown
heavy 2: not shown
light: B1 light
notes: as for B10
B20: GpH7-A5/GpH7-B3 variant S324_14T/GpL16-k0 (antibody, human IgG1, kappa)
heavy 1: not shown
heavy 2: not shown
light: B1 light
notes: as for B10
B21: GpH7-A5/GpH7-B3 variant Q295_10E/GpL16-k0 (antibody, human IgG1, kappa)
heavy 1: not shown
heavy 2: not shown
light: B1 light
notes: as for B10
B22: GpH7-A5/GpH7-B3 variant E333_20W/GpL16-k0 (antibody, human IgG1, kappa)
heavy 1: not shown
heavy 2: not shown
light: B1 light
notes: as for B10
B23: GpH7-A5/GpH7-B3 variant Q295_14T/GpL16-k0 (antibody, human IgG1, kappa)
heavy 1: not shown
heavy 2: not shown
light: B1 light
notes: as for B10
B24: GpH7-A5/GpH7-B3 variant A330_04F/GpL16-k0 (antibody, human IgG1, kappa)
heavy 1: not shown
heavy 2: not shown
light: B1 light
notes: as for B10
B25: GpH7-A5/GpH7-B3 variant E333_02A/GpL16-k0 (antibody, human IgG1, kappa)
heavy 1: not shown
heavy 2: not shown
light: B1 light
notes: as for B10
B26: GpH7-A5/GpH7-B3 variant S324_02A/GpL16-k0 (antibody, human IgG1, kappa)
heavy 1: not shown
heavy 2: not shown
light: B1 light
notes: as for B10
B27: GpH7-A5/GpH7-B3 variant A330_07I/GpL16-k0 (antibody, human IgG1, kappa)
heavy 1: not shown
heavy 2: not shown
light: B1 light
notes: as for B10
B28: GpH7-A5/GpH7-B3 variant I332_19Q/GpL16-k0 (antibody, human IgG1, kappa)
heavy 1: not shown
heavy 2: not shown
light: B1 light
notes: as for B10
B29: GpH7-A5/GpH7-B3 variant A330_08L/GpL16-k0 (antibody, human IgG1, kappa)
heavy 1: not shown
heavy 2: not shown
light: B1 light
notes: as for B10
B30: GpH7-A5/GpH7-B3 variant S324_01G/GpL16-k0 (antibody, human IgG1, kappa)
heavy 1: not shown
heavy 2: not shown
light: B1 light
notes: as for B10
B31: GpH7-A5/GpH7-B3 variant S324_09D/GpL16-k0 (antibody, human IgG1, kappa)
heavy 1: not shown
heavy 2: not shown
light: B1 light
notes: as for B10
B32: GpH7-A5/GpH7-B3 variant E333_03V/GpL16-k0 (antibody, human IgG1, kappa)
heavy 1: not shown
heavy 2: not shown
light: B1 light
notes: as for B10
B33: GpH7-A5/GpH7-B3 variant A330_20W/GpL16-k0 (antibody, human IgG1, kappa)
heavy 1: not shown
heavy 2: not shown
light: B1 light
notes: as for B10
B34: GpH7-A5/GpH7-B3 variant E333_04F/GpL16-k0 (antibody, human IgG1, kappa)
heavy 1: not shown
heavy 2: not shown
light: B1 light
notes: as for B10
B35: GpH7-A5/GpH7-B3 variant E333_13S/GpL16-k0 (antibody, human IgG1, kappa)
heavy 1: not shown
heavy 2: not shown
light: B1 light
notes: as for B10
B36: GpH7-A5/GpH7-B3 variant A330_03V/GpL16-k0 (antibody, human IgG1, kappa)
heavy 1: not shown
heavy 2: not shown
light: B1 light
notes: as for B10
B37: GpH7-A5/GpH7-B3 variant A330_15Y/GpL16-k0 (antibody, human IgG1, kappa)
heavy 1: not shown
heavy 2: not shown
light: B1 light
notes: as for B10
B38: GpH7-A5/GpH7-B3 variant I332_01G/GpL16-k0 (antibody, human IgG1, kappa)
heavy 1: not shown
heavy 2: not shown
light: B1 light
notes: as for B10
B39: GpH7-A5/GpH7-B3 variant S298_02A/GpL16-k0 (antibody, human IgG1, kappa)
heavy 1: not shown
heavy 2: not shown
light: B1 light
notes: as for B10

These binders were tested against T3, FcγRIa (human, UniProt P12314 16-292) (assay: SPR, captured antibody; relative to GpH7-A5/GpH7-B3/GpL16-k0).
T3 construct: extracellular domain; also called FcgRI; 1a
T3 sequence (P12314 16-292): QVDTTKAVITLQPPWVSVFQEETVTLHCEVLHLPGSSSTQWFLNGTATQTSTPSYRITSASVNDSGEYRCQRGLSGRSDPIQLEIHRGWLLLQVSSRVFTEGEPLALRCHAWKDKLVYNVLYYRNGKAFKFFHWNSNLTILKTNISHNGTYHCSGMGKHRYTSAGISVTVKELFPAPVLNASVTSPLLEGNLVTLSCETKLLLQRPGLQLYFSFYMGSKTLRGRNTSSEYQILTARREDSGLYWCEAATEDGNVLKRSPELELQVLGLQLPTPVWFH

| Binder | He/Con_1a |
| --- | --- |
| B1 | 94 relative, HeCon Ab = 100 |
| B2 | 100 relative, HeCon Ab = 100 |
| B3 | 104 relative, HeCon Ab = 100 |
| B4 | 102 relative, HeCon Ab = 100 |
| B5 | 102 relative, HeCon Ab = 100 |
| B6 | 101 relative, HeCon Ab = 100 |
| B7 | 102 relative, HeCon Ab = 100 |
| B8 | 100 relative, HeCon Ab = 100 |
| B9 | 101 relative, HeCon Ab = 100 |

Each binder was assayed against T1, FcγRIIb in the same assay as above.

| Binder | He/Con_2b |
| --- | --- |
| B1 | 42.6 relative, HeCon Ab = 100 |
| B2 | 65.9 relative, HeCon Ab = 100 |
| B3 | 88 relative, HeCon Ab = 100 |
| B4 | 47.7 relative, HeCon Ab = 100 |
| B5 | 74.8 relative, HeCon Ab = 100 |
| B6 | 97.3 relative, HeCon Ab = 100 |
| B7 | 59.5 relative, HeCon Ab = 100 |
| B8 | 89.2 relative, HeCon Ab = 100 |
| B9 | 86.1 relative, HeCon Ab = 100 |

These binders were tested against T4, FcγRIIIa extracellular domain with C-terminal His tag (human, UniProt P08637 17-208) (assay: SPR, relative to GpH7-A5/GpH7-B3/GpL16-k0).
T4 construct: extracellular domain; also called 3a; FcgRIIIa
Method: (§1) The heterodimerized antibodies He Abs in which one of the H chains was introduced with an alteration were assayed for their binding activities to each activating FcγR and inhibitory FcγR according to the method described in Example 4. […] The activating FcγRs in FIGS. 26, 27, 28, and 29 are FcγRIa, FcγRIIa (R), FcγRIIa (H), and FcγRIIIa, respectively.
(§2) Analysis of interaction between objective antibody and the FcγR was carried out using Biacore T100 (GE Healthcare). HBS-EP+ (GE Healthcare) was used as the running buffer, and the measurement temperature was set to 25° C. Chips produced by immobilizing the antigen peptide by the amine coupling method to a Series S Sencor Chip CM5 (GE Healthcare), or alternatively, chips produced by allowing preliminarily biotinylated antigen peptides to interact with and immobilize onto a Series S Sensor Chip SA (certified) (GE Healthcare) were used. Antibodies of interest were captured onto an antigen peptide-immobilized chip, and allowed to interact to each FcγR diluted with running buffer. To regenerate and repeatedly use the chip, the antibodies captured on the chip were washed off by reacting 10 mM glycine-HCl, pH 1.5.

T4 sequence (P08637 17-208): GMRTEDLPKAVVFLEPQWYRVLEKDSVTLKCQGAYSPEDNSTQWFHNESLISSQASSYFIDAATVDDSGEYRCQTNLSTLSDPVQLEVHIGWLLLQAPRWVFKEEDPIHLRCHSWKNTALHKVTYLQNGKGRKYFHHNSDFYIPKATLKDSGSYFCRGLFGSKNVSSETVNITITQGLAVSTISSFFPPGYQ

| Binder | He/Con_3a [control=100] |
| --- | --- |
| B10 | 123 |
| B11 | 104 |
| B12 | 118 |
| B13 | 113 |
| B14 | 104 |
| B15 | 103 |
| B16 | 106 |
| B17 | 112 |
| B18 | 109 |
| B19 | 142 |
| B20 | 103 |
| B21 | 100 |
| B22 | 101 |
| B23 | 115 |
| B24 | 147 |
| B25 | 105 |
| B26 | 104 |
| B27 | 103 |
| B28 | 110 |
| B29 | 124 |
| B30 | 105 |
| B31 | 101 |
| B32 | 103 |
| B33 | 104 |
| B34 | 101 |
| B35 | 103 |
| B36 | 101 |
| B37 | 125 |
| B38 | 111 |
| B39 | 160 |

Each binder was assayed against T2, FcγRIIb extracellular domain with … (assay: SPR, relative to GpH7-A5/GpH7-B3/GpL16-k0).
Method: as §1, §2

| Binder | He/Con_2b [control=100] |
| --- | --- |
| B10 | 76.5 |
| B11 | 98.4 |
| B12 | 99.8 |
| B13 | 77.9 |
| B14 | 87.6 |
| B15 | 83.3 |
| B16 | 79.7 |
| B17 | 94.3 |
| B18 | 64.5 |
| B19 | 80.5 |
| B20 | 88.4 |
| B21 | 94.8 |
| B22 | 89.5 |
| B23 | 66.8 |
| B24 | 92.8 |
| B25 | 83.8 |
| B26 | 78.3 |
| B27 | 67.1 |
| B28 | 94.3 |
| B29 | 70.5 |
| B30 | 81.1 |
| B31 | 85.8 |
| B32 | 93.2 |
| B33 | 76.1 |
| B34 | 94.6 |
| B35 | 81.8 |
| B36 | 52.4 |
| B37 | 95 |
| B38 | 87.1 |
| B39 | 73.4 |
